Values of other authors, collected in PMC2848394.

Target: BMP-2 (Homo sapiens) (UniProt P12643)
Assay: Biacore SPR

Sequence of Chordin (Q9H2X0 27-955): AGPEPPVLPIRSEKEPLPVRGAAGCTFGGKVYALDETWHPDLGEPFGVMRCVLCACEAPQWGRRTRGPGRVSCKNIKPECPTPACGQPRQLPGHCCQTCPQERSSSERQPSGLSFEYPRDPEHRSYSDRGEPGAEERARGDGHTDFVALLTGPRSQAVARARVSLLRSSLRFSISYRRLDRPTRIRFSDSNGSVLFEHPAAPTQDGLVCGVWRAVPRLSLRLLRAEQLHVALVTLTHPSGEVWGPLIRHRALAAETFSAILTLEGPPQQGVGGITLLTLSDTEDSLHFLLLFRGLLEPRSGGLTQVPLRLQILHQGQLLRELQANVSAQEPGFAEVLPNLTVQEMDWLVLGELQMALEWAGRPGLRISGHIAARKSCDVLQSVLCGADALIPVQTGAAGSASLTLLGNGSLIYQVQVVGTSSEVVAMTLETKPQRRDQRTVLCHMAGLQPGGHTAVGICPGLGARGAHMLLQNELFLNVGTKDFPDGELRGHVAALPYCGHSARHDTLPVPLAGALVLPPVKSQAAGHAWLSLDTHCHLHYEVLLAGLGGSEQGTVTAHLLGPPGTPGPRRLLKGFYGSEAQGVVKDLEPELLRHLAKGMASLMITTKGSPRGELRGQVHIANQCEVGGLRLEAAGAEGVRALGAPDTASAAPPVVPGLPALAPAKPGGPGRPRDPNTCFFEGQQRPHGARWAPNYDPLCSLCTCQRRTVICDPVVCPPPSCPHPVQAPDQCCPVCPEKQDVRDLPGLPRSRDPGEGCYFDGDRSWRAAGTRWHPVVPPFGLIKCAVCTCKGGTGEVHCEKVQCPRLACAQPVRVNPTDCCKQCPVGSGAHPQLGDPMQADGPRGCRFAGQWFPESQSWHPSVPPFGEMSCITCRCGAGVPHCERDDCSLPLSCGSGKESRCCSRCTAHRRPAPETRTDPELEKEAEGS
Sequence of BMP-2 (Homo sapiens) (P12643 283-396): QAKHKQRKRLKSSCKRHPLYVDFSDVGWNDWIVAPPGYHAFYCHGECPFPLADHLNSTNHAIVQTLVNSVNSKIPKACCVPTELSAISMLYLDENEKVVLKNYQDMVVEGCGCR

Kd: 12 nM
Substance: Chordin (from UniProt Q9H2X0)
